US6676941B2 (Board of Regents, The University of Texas System, priority 1999, dated 2004)

Tested on: Bend3 mouse endothelial cells; ABAE; HUVEC
Assay: Direct binding of biotinylated 6-His endostatin to endothelial cells
Type: cell-based, bovine, human
Conditions: streptavidin-peroxidase detection
Text: Binding was detected using streptavidin-peroxidase in conjunction with O-phenylenediamine (OPD) and the absorbance read at 490 nm.

B1: endostatin (protein, UniProt P39060 1572-1754, looked up)
Endostatin: HSHRDFQPVLHLVALNSPLSGGMRGIRGADFQCFQQARAVGLAGTFRAFLSSRLQDLYSIVRRADRAAVPIVNLKDELLFPSWEALFSGSEGPLKPGARIFSFDGKDVLRHPTWPQKSVWHGSDPNGRRLTESYCETWRTEAPSATGQASSLLGGRLLGQSAASCHHAYIVLCIENSFMTASK
modifications: Endostatin
- Binding to endothelial cells in vitro: bound in a saturable fashion
